Data taken from publication PMC7026639.
Read-outs that look alike come from different tables or passages of the source.

B1: 14-bp cognate oligo (dsDNA)
DNA 1: TCCAAGCGCAACAG
DNA 2: CTGTTGCGCTTGGA
B2: 13-bp iodo oligo (dsDNA)
DNA 1: TCCAAGCGCAACG
DNA 2: CGUTGCGCTUGGA
modifications: 5-iodo-uridine at positions 3 and 10 of strand 2 (printed as I, written as U)

Experiments:
[1] = target: T1, HhaI restriction endonuclease (R.HhaI) (Haemophilus haemolyticus NEB129 (now …, UniProt A0ABF7PI58 1-258)); test: X-ray crystallography
[2] = target: T1, HhaI restriction endonuclease (R.HhaI); test: X-ray crystallography; remark: listed apart in the source

| Binder | binding result [1] | binding result [2] |
| --- | --- | --- |
| B1 | binds |  |
| B2 |  | binds |
